This note sets out measurements from US7563610 (Takeda / Millennium, dated 2009).

This series deals with the molecule itself. The series is described as follows: X-ray crystal structure (homodimer in the asymmetric unit).

B1: IspA (farnesyl pyrophosphate synthase) from E. coli, full length with non-cleavable N-terminal six histidine tag (enzyme)
chain: MGSDKIIHHHHHHTLMDFPQQLEACVKQANQALSRFIAPLPFQNTPVVETMQYGALLGGKRLRPFLVYATGHMFGVSTNTLDAPAAAVECIHAYSLIHDDLPAMDDDDLRRGLPTCHVKFGEANAILAGDALQTLAFSILSDADMPEVSDRDRISMISELASASGIAGMCGGQALDLDAEGKHVPLDALERIHRHKTGALIRAAVRLGALSAGDKGRRALPVLDKYAESIGLAFQVQDDILDVVGDTATLGKRQGADQQLGKSTYPALLGLEQARKKARDLIDDARQSLKQLAEQSLDTSALEALADYIIQRNK
notes: Two copies form the dimer in the crystal; also called FPPS
For B1, the binding result is recorded as “binds”.
